This assay concerns the target b1b2 domain of NRP-1 (recombinant). The assay is described as follows: pull-down; Ni-NTA magnetic agarose beads coated with the b1b2 domain of NRP-1; fluorescent HLPNs incubated 1 h at room temperature with uPA added; 50 mM Tris pH 7.5, 1 M NaCl, 5 mM imidazole, 0.05% NP40; eluted with 400 mM imidazole, fluorescence of the eluate read.

Where no end group is shown, it is not given here.

Consider AKRGAR-OH (also: FAM label, site not given here, conjugated to surface of HLPNs) [uPA-cleaved LinTT1 peptide with exposed CendR motif, on HLPNs], for which the fold increase of binding by uPA treatment (against no uPA) stood at 4 fold.
